Test results from US20190225661A1.

Target: non-specific polyclonal IgG
Experiment: non-specific polyclonal IgG (2 ug/ml) added as bait, protein A Sepharose pull-down, deoxycholate release, HGF ELISA

HGF recovered from beads after pull-down with IgG: 2.8 ng/mL
Substance: Hepatocyte Growth Factor (HGF) in human epicardial-derived cell-conditioned medium (EPI CdM) (ligand)
